Measurements as given in publication PMC9482650, “Quantitative fragmentomics allow affinity mapping of interactomes” (Nature Communications, 2022).

Key:
Assay in all cases: holdup assay
Parameters in all cases: key: below the threshold = too weak to quantify, mostly under pKd 3.1 to 4
FRMPD2_3, Q68DX3 = target: FRMPD2_3, Q68DX3
MPDZ_5, O75970 = target: T1, MPDZ_5, O75970
T1 sequence (O75970 695-796, limits assumed, looked up): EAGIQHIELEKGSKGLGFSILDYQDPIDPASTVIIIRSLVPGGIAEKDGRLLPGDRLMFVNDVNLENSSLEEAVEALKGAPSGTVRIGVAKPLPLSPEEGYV

TJP3_3, O95049 = target: T2, TJP3_3, O95049
T2 sequence (O95049 375-456, limits assumed, looked up): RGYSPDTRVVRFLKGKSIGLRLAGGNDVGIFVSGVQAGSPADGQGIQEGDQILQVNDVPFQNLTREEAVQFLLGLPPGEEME

GRIP1_4, Q9Y3R0 = target: T3, GRIP1_4, Q9Y3R0
T3 sequence (Q9Y3R0 467-571, limits assumed, looked up): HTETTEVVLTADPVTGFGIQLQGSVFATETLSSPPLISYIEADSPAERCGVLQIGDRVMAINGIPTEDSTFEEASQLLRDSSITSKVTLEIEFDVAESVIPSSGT

MPP7, Q5T2T1 = target: T4, MPP7, Q5T2T1
T4 sequence (Q5T2T1 134-230, limits assumed, looked up): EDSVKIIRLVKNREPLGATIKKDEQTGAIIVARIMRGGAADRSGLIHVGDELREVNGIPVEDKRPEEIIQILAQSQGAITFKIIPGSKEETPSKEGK

PDZD2_2, O15018 = target: T5, PDZD2_2, O15018
T5 sequence (O15018 329-429, limits assumed, looked up): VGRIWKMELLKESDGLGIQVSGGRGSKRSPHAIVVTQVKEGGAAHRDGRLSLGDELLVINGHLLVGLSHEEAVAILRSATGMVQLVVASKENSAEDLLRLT

SYNJ2BP, P57105 = target: T6, SYNJ2BP, P57105
T6 sequence (P57105 8-110, limits assumed, looked up): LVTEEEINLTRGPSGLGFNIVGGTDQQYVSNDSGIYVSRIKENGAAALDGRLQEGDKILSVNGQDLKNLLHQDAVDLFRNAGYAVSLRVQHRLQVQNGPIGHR

MAGI1_2, Q96QZ7 = target: MAGI1_2, Q96QZ7
MAGI1_2, Q96QZ7, sequence (Q96QZ7 456-580): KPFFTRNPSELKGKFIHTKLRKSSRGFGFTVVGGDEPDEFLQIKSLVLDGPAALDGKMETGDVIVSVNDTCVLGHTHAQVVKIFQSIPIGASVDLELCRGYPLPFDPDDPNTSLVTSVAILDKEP

HTRA2, O43464 = target: HTRA2, O43464
HTRA2, O43464, sequence (O43464 355-458): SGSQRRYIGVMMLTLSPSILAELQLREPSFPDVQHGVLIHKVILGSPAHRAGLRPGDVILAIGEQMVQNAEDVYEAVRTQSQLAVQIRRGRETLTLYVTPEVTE

LRRC7, Q96NW7 = target: T7, LRRC7, Q96NW7
T7 sequence (Q96NW7 1440-1537, limits assumed, looked up): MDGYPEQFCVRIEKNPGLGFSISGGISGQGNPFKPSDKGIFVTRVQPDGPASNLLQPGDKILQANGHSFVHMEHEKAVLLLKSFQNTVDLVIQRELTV

SCRIB_2, Q14160 = target: SCRIB_2, Q14160
SCRIB_2, Q14160, sequence (Q14160 857-960): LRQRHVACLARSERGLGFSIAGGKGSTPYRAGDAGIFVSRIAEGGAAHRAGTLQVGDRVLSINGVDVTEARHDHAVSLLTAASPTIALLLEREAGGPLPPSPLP

PDZD7_3, Q9H5P4 = target: T8, PDZD7_3, Q9H5P4
T8 sequence (Q9H5P4 857-944, limits assumed, looked up): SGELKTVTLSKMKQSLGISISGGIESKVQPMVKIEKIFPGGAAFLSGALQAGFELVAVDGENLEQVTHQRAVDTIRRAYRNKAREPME

APBA2_2, Q99767 = target: T9, APBA2_2, Q99767
T9 sequence (Q99767 654-744, limits assumed, looked up): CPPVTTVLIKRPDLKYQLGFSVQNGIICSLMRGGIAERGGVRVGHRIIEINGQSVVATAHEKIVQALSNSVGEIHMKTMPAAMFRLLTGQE

LNX1_1, Q8TBB1 = target: LNX1_1, Q8TBB1
LNX1_1, Q8TBB1, sequence (Q8TBB1 261-371): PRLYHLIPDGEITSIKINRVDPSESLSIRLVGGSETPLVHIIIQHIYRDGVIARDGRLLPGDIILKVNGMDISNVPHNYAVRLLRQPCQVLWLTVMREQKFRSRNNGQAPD

NHERF3_1, Q5T2W1 = target: T10, NHERF3_1, Q5T2W1
T10 sequence (Q5T2W1 4-100, limits assumed, looked up): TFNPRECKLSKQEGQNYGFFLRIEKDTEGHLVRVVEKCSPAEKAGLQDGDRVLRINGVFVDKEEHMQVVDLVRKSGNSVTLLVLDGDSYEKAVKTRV

MPP2, Q14168 = target: T11, MPP2, Q14168
T11 sequence (Q14168 180-250, limits assumed, looked up): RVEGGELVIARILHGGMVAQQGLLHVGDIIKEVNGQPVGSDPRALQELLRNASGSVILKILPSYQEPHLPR

GORASP1, Q9BQQ3 = target: GORASP1, Q9BQQ3
GORASP1, Q9BQQ3, sequence (Q9BQQ3 1-208): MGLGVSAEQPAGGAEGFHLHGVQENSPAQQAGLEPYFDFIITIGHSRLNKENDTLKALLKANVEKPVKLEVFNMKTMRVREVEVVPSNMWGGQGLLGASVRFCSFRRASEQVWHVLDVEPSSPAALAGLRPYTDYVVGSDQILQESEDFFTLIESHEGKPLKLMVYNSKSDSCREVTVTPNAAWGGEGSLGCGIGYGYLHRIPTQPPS

RHPN1, Q8TCX5 = target: T12, RHPN1, Q8TCX5
T12 sequence (Q8TCX5 508-602, limits assumed, looked up): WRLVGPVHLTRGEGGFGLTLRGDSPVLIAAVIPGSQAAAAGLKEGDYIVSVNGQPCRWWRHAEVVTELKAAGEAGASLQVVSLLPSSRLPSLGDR

MPP6, Q9NZW5 = target: T13, MPP6, Q9NZW5
T13 sequence (Q9NZW5 125-219, limits assumed, looked up): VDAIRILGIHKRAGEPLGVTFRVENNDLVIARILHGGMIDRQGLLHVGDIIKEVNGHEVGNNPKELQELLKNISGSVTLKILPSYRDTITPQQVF

LNX1_2, Q8TBB1 = target: LNX1_2, Q8TBB1
LNX1_2, Q8TBB1, sequence (Q8TBB1 371-470): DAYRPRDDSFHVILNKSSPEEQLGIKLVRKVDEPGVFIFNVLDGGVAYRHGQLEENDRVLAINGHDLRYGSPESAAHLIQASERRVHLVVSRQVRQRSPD

IL16_1, Q14005 = target: IL16_1, Q14005
IL16_1, Q14005, sequence (Q14005 210-306): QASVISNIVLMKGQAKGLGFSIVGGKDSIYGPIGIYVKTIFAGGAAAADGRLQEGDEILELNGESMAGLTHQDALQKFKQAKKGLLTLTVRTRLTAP

DLG1_1, Q12959 = target: DLG1_1, Q12959
GRIP2_6, Q9C0E4 = target: GRIP2_6, Q9C0E4
GRIP2_6, Q9C0E4, sequence (Q9C0E4 648-740): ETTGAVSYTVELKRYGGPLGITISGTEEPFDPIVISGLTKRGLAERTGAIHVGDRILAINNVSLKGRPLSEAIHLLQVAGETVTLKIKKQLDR

DLG4_3, P78352 = target: DLG4_3, P78352
DLG4_3, P78352, sequence (P78352 306-403): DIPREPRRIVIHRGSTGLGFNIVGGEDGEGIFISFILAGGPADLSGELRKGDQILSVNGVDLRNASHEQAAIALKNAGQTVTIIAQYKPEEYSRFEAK

MAGI2_4, Q86UL8 = target: MAGI2_4, Q86UL8
MAGI2_4, Q86UL8, sequence (Q86UL8 772-865): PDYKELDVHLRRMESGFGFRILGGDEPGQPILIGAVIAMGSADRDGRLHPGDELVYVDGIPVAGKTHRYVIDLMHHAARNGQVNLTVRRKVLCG

[1] = plain residues with an end cap or a label only (N-terminal biotin on a linker: (peg)3)
[2] = plain residues with an end cap or a label only (N-terminal biotin on a linker: ado-ado)

FRMPD2_3, Q68DX3, sequence (Q68DX3 1073-1166): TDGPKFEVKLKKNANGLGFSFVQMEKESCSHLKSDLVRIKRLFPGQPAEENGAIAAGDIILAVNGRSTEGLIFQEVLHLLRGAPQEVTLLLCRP

With RRRRSQSRESQC [HBV-HBc, P03193] the pKd (FRMPD2_3, Q68DX3; [1]) was “below the threshold”, the pKd (MPDZ_5, O75970; [1]) was “below the threshold” and the pKd (TJP3_3, O95049; [1]) was “below the threshold”. For the same binder, the pKd (GRIP1_4, Q9Y3R0; [1]) was “below the threshold”, the pKd (MPP7, Q5T2T1; [1]) was “below the threshold” and the pKd (PDZD2_2, O15018; [1]) was 3.88. The pKd (SYNJ2BP, P57105; [1]) was 4.59, the pKd (MAGI1_2, Q96QZ7; [1]) was 4.07 and the pKd (HTRA2, O43464; [1]) was “below the threshold”. The pKd (LRRC7, Q96NW7; [1]) was “below the threshold”, the pKd (SCRIB_2, Q14160; [1]) was “below the threshold” and the pKd (PDZD7_3, Q9H5P4; [1]) was “below the threshold”. The pKd (APBA2_2, Q99767; [1]) was “below the threshold”, the pKd (LNX1_1, Q8TBB1; [1]) was “below the threshold” and the pKd (NHERF3_1, Q5T2W1; [1]) was 4.44. The pKd (MPP2, Q14168; [1]) was “below the threshold”, the pKd (GORASP1, Q9BQQ3; [1]) was “below the threshold” and the pKd (RHPN1, Q8TCX5; [1]) was “below the threshold”. For the same binder, the pKd (MPP6, Q9NZW5; [1]) was “below the threshold”, the pKd (LNX1_2, Q8TBB1; [1]) was “below the threshold” and the pKd (IL16_1, Q14005; [1]) was “below the threshold”. The pKd (DLG1_1, Q12959; [1]) was 4.23, the pKd (GRIP2_6, Q9C0E4; [1]) was “below the threshold” and the pKd (DLG4_3, P78352; [1]) was 4.58. The pKd (MAGI2_4, Q86UL8; [1]) was “below the threshold”.

In the case of NTANRRTTPV [CACNG2, Q9Y698], the pKd (FRMPD2_3, Q68DX3; [2]) is reported as “below the threshold”, the pKd (MPDZ_5, O75970; [2]) is reported as “below the threshold” and the pKd (TJP3_3, O95049; [2]) is reported as “below the threshold”. The pKd (GRIP1_4, Q9Y3R0; [2]) was “below the threshold”, the pKd (MPP7, Q5T2T1; [2]) was “below the threshold” and the pKd (PDZD2_2, O15018; [2]) was 3.66. For the same binder, the pKd (SYNJ2BP, P57105; [2]) was 5.08, the pKd (MAGI1_2, Q96QZ7; [2]) was 4.72 and the pKd (HTRA2, O43464; [2]) was “below the threshold”. The pKd (LRRC7, Q96NW7; [2]) was “below the threshold”, the pKd (SCRIB_2, Q14160; [2]) was “below the threshold” and the pKd (PDZD7_3, Q9H5P4; [2]) was 4.19. For the same binder, the pKd (APBA2_2, Q99767; [2]) was “below the threshold”, the pKd (LNX1_1, Q8TBB1; [2]) was “below the threshold” and the pKd (NHERF3_1, Q5T2W1; [2]) was “below the threshold”. The pKd (MPP2, Q14168; [2]) was “below the threshold”, the pKd (GORASP1, Q9BQQ3; [2]) was “below the threshold” and the pKd (RHPN1, Q8TCX5; [2]) was “below the threshold”. For the same binder, the pKd (MPP6, Q9NZW5; [2]) was “below the threshold”, the pKd (LNX1_2, Q8TBB1; [2]) was “below the threshold” and the pKd (IL16_1, Q14005; [2]) was “below the threshold”. For the same binder, the pKd (DLG1_1, Q12959; [2]) was 4.34, the pKd (GRIP2_6, Q9C0E4; [2]) was “below the threshold” and the pKd (DLG4_3, P78352; [2]) was 4.69. For the same binder, the pKd (MAGI2_4, Q86UL8; [2]) was “below the threshold”.

In the case of SFISKKEWYV [NECTIN1, Q15223], the pKd (FRMPD2_3, Q68DX3; [2]) is reported as 4.31, the pKd (MPDZ_5, O75970; [2]) is reported as 4.61 and the pKd (TJP3_3, O95049; [2]) is reported as 4.1. For the same binder, the pKd (GRIP1_4, Q9Y3R0; [2]) was “below the threshold”, the pKd (MPP7, Q5T2T1; [2]) was 5.11 and the pKd (PDZD2_2, O15018; [2]) was 5.02. The pKd (SYNJ2BP, P57105; [2]) was “below the threshold”, the pKd (MAGI1_2, Q96QZ7; [2]) was 4.28 and the pKd (HTRA2, O43464; [2]) was 4.2. For the same binder, the pKd (LRRC7, Q96NW7; [2]) was “below the threshold”, the pKd (SCRIB_2, Q14160; [2]) was “below the threshold” and the pKd (PDZD7_3, Q9H5P4; [2]) was “below the threshold”. The pKd (APBA2_2, Q99767; [2]) was “below the threshold”, the pKd (LNX1_1, Q8TBB1; [2]) was “below the threshold” and the pKd (NHERF3_1, Q5T2W1; [2]) was 4.28. For the same binder, the pKd (MPP2, Q14168; [2]) was 4.46, the pKd (GORASP1, Q9BQQ3; [2]) was 4.44 and the pKd (RHPN1, Q8TCX5; [2]) was “below the threshold”. For the same binder, the pKd (MPP6, Q9NZW5; [2]) was 4.42, the pKd (LNX1_2, Q8TBB1; [2]) was 4.46 and the pKd (IL16_1, Q14005; [2]) was “below the threshold”. For the same binder, the pKd (DLG1_1, Q12959; [2]) was 3.6, the pKd (GRIP2_6, Q9C0E4; [2]) was 4.3 and the pKd (DLG4_3, P78352; [2]) was “below the threshold”. The pKd (MAGI2_4, Q86UL8; [2]) was 3.8.
